Measurements from PMC10465243, “Identification of sucrose synthase from Micractinium conductrix to favor biocatalytic glycosylation” (Frontiers in Microbiology, 2023).

How the values were obtained:
[1] = tested on: O=c1ccn([C@@H]2O[C@H](COP(=O)(O)OP(=O)(O)O)[C@@H](O)[C@H]2O)c(=O)[nH]1; experiment: purified protein; type: biochemical, Micractinium conductrix; settings: 200 mM sucrose, 50 mM HEPES-NaOH pH 7.0, 37°C, sucrose cleavage direction, apparent
[2] = tested on: OC[C@H]1O[C@@](CO)(O[C@H]2O[C@H](CO)[C@@H](O)[C@H](O)[C@H]2O)[C@@H](O)[C@@H]1O; experiment: purified protein; type: biochemical, Micractinium conductrix; settings: 2 mM UDP, 50 mM HEPES-NaOH pH 7.0, 37°C, sucrose cleavage direction, apparent

Chain of McSuSy (Micractinium conductrix; S31D) (chain, as listed by the source S31D): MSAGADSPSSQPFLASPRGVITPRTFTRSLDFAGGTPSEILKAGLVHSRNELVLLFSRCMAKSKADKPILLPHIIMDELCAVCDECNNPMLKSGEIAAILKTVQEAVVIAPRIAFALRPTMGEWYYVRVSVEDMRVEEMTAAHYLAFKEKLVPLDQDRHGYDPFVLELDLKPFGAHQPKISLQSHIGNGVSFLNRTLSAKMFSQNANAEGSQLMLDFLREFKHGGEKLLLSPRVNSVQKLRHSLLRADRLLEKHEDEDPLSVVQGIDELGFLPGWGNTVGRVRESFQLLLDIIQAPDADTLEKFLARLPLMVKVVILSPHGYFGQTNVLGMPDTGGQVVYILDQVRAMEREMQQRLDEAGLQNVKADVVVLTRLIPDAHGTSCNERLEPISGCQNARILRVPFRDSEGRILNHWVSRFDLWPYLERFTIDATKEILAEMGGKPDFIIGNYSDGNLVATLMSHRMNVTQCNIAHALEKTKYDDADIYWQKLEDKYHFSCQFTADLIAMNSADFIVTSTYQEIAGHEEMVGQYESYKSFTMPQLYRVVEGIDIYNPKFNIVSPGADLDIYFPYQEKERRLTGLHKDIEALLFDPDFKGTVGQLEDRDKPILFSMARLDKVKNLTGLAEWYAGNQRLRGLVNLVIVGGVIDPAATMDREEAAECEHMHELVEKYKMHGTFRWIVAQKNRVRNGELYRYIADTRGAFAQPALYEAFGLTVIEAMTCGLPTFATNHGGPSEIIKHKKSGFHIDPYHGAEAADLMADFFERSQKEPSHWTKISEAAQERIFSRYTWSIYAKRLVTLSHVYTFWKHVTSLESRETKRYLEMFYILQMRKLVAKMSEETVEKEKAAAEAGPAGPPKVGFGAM
Chain of McSuSy (Micractinium conductrix) (chain, as listed by the source): as the sequence (chain, as listed by the source S31D) above, with D31S counted along it

How did the Km [1] turn out when McSuSy (Micractinium conductrix; S31D) was run?
The Km was 0.092 mM.

And the Vmax [1]?
Its Vmax is 11.4 µmol/min/mg.

What about the kcat [1] of the same substance?
Its kcat is 19 s⁻¹.

And the kcat/Km [1]?
Its kcat/Km is 206000 M⁻¹ s⁻¹.

And the Km [2]?
The Km was 88 mM.

How did the Km [1] turn out when McSuSy (Micractinium conductrix) was run?
The Km was 0.14 mM.

What about the Vmax [1] of the same substance?
Its Vmax is 10.4 µmol/min/mg.

And the kcat [1]?
Its kcat is 17.3 s⁻¹.

And the kcat/Km [1]?
Its kcat/Km is 124000 M⁻¹ s⁻¹.

What about the Km [2] of the same substance?
The Km was 90 mM.
